Reference: IntAct's records for PubMed 29892012

B1: Coiled-coil domain-containing protein 14 (Homo sapiens), Q49A88 (parent)
chain: MKRGIRRDPFRKRKLGGRAKKVREPTAVNSFYREASLPSVWASLRRREMVRSGARPGQVLSSGRHTGPAKLTNGKKATYLRKIPRFNADSGYSIHSDSESQAETVHGLDGCASLLRDILRNEDSGSETAYLENRSNSRPLESKRYGSKKKRHEKHTIPLVVQKETSSSDNKKQIPNEASARSERDTSDLEQNWSLQDHYRMYSPIIYQALCEHVQTQMSLMNDLTSKNIPNGIPAVPCHAPSHSESQATPHSSYGLCTSTPVWSLQRPPCPPKVHSEVQTDGNSQFASQGKTVSATCTDVLRNSFNTSPGVPCSLPKTDISAIPTLQQLGLVNGILPQQGIHKETDLLKCIQTYLSLFRSHGKETHLDSQTHRSPTQSQPAFLATNEEKCAREQIREATSERKDLNIHVRDTKTVKDVQKAKNVNKTAEKVRIIKYLLGELKALVAEQEDSEIQRLITEMEACISVLPTVSGNTDIQVEIALAMQPLRSENAQLRRQLRILNQQLREQQKTQKPSGAVDCNLELFSLQSLNMSLQNQLEESLKSQELLQSKNEELLKVIENQKDENKKFSSIFKDKDQTILENKQQYDIEITRIKIELEEALVNVKSSQFKLETAEKENQILGITLRQRDAEVTRLRELTRTLQTSMAKLLSDLSVDSARCKPGNNLTKSLLNIHDKQLQHDPAPAHTSIMSYLNKLETNYSFTHSEPLSTIKNEETIEPDKTYENVLSSRGPQNSNTRGMEEASAPGIISALSKQDSDEGSETMALIEDEHNLDNTIYIPFARSTPEKKSPLSKRLSPQPQIRAATTQLVSNSGLAVSGKENKLCTPVICSSSTKEAEDAPEKLSRASDMKDTQLLKKIKEAIGKIPAATKEPEEQTACHGPSGCLSNSLQVKGNTVCDGSVFTSDLMSDWSISSFSTFTSRDEQDFRNGLAALDANIARLQKSLRTGLLEK
partner: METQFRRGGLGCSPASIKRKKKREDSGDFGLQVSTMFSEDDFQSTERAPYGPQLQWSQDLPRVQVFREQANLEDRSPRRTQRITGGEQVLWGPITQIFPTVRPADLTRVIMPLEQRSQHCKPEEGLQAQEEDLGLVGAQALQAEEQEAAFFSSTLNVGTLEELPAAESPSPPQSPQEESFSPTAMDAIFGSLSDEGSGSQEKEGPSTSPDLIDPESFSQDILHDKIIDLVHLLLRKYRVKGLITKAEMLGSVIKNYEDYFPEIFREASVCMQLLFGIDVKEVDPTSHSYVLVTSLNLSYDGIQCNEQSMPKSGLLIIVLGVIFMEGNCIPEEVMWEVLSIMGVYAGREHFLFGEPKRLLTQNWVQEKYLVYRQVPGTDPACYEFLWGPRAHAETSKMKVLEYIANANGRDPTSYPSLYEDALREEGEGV
B2: Abl interactor 2 (Homo sapiens), Q9NYB9 (parent)
chain: MAELQMLLEEEIPGGRRALFDSYTNLERVADYCENNYIQSADKQRALEETKAYTTQSLASVAYLINTLANNVLQMLDIQASQLRRMESSINHISQTVDIHKEKVARREIGILTTNKNTSRTHKIIAPANLERPVRYIRKPIDYTILDDIGHGVKWLLRFKVSTQNMKMGGLPRTTPPTQKPPSPPMSGKGTLGRHSPYRTLEPVRPPVVPNDYVPSPTRNMAPSQQSPVRTASVNQRNRTYSSSGSSGGSHPSSRSSSRENSGSGSVGVPIAVPTPSPPSVFPAPAGSAGTPPLPATSASAPAPLVPATVPSSTAPNAAAGGAPNLADGFTSPTPPVVSSTPPTGHPVQFYSMNRPASRHTPPTIGGSLPYRRPPSITSQTSLQNQMNGGPFYSQNPVSDTPPPPPPVEEPVFDESPPPPPPPEDYEEEEAAVVEYSDPYAEEDPPWAPRSYLEKVVAIYDYTKDKEDELSFQEGAIIYVIKKNDDGWYEGVMNGVTGLFPGNYVESIMHYSE
partner: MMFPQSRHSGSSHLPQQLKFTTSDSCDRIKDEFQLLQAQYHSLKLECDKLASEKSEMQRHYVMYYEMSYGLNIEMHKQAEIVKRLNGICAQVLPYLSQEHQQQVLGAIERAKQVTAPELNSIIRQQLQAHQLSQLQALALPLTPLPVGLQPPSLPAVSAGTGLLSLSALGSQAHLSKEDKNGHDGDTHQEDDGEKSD
B3: Angio-associated migratory cell protein (Homo sapiens), Q13685 (parent)
chain: MESESESGAAADTPPLETLSFHGDEEIIEVVELDPGPPDPDDLAQEMEDVDFEEEEEEEGNEEGWVLEPQEGVVGSMEGPDDSEVTFALHSASVFCVSLDPKTNTLAVTGGEDDKAFVWRLSDGELLFECAGHKDSVTCAGFSHDSTLVATGDMSGLLKVWQVDTKEEVWSFEAGDLEWMEWHPRAPVLLAGTADGNTWMWKVPNGDCKTFQGPNCPATCGRVLPDGKRAVVGYEDGTIRIWDLKQGSPIHVLKGTEGHQGPLTCVAANQDGSLILTGSVDCQAKLVSATTGKVVGVFRPETVASQPSLGEGEESESNSVESLGFCSVMPLAAVGYLDGTLAIYDLATQTLRHQCQHQSGIVQLLWEAGTAVVYTCSLDGIVRLWDARTGRLLTDYRGHTAEILDFALSKDASLVVTTSGDHKAKVFCVQRPDR
B4: Histone-lysine N-methyltransferase SMYD1 (Homo sapiens), Q8NB12 (parent)
chain: MTIGRMENVEVFTAEGKGRGLKATKEFWAADIIFAERAYSAVVFDSLVNFVCHTCFKRQEKLHRCGQCKFAHYCDRTCQKDAWLNHKNECSAIKRYGKVPNENIRLAARIMWRVEREGTGLTEGCLVSVDDLQNHVEHFGEEEQKDLRVDVDTFLQYWPPQSQQFSMQYISHIFGVINCNGFTLSDQRGLQAVGVGIFPNLGLVNHDCWPNCTVIFNNGNHEAVKSMFHTQMRIELRALGKISEGEELTVSYIDFLNVSEERKRQLKKQYYFDCTCEHCQKKLKDDLFLGVKDNPKPSQEVVKEMIQFSKDTLEKIDKARSEGLYHEVVKLCRECLEKQEPVFADTNIYMLRMLSIVSEVLSYLQAFEEASFYARRMVDGYMKLYHPNNAQLGMAVMRAGLTNWHAGNIEVGHGMICKAYAILLVTHGPSHPITKDLEAMRVQTEMELRMFRQNEFMYYKMREAALNNQPMQVMAEPSNEPSPALFHKKQ
partner: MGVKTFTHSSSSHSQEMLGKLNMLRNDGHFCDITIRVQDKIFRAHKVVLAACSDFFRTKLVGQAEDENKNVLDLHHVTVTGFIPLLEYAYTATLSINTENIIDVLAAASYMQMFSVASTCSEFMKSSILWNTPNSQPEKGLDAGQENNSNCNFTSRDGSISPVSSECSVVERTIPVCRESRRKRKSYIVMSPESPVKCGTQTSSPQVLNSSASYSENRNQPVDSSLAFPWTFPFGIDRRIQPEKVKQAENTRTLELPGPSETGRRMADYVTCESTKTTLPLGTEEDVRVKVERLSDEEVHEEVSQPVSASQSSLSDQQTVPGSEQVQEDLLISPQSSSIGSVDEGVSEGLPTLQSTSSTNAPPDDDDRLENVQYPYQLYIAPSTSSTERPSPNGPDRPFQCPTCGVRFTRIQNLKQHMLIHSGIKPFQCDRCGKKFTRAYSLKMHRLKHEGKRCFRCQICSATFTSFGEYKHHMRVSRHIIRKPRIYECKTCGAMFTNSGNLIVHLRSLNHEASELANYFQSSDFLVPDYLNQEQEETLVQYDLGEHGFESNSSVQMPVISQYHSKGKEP

Variants of: B1
Conditions: with magab_human MAGEA11, P43364

effect of a mutation on the interaction | Variant
with no effect | I476T

Variants of: B2
Conditions: with tle5_human TLE5, Q08117

effect of a mutation on the interaction | Variant
with no effect | E202K

Variants of: B2
Conditions: with tle5_human TLE5, Q08117
Remark: another data set of the same source

effect of a mutation on the interaction | Variant
with no effect | R373C

Variants of: B3
Conditions: with bhe40_human BHLHE40, O14503
bhe40_human BHLHE40, O14503, sequence (O14503 whole entry): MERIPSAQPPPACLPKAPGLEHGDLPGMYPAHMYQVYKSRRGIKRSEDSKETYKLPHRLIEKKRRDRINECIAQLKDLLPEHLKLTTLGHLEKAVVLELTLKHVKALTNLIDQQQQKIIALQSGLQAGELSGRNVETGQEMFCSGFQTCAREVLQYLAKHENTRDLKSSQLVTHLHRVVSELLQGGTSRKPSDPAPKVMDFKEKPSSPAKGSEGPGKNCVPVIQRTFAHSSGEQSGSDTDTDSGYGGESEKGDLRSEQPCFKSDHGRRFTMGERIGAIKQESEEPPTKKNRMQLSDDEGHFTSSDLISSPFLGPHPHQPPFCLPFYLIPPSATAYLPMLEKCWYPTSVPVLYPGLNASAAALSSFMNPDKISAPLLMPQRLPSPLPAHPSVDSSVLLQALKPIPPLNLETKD

effect of a mutation on the interaction | Variant
with no effect | I343F

Variants of: B4
Conditions: with zbt44_human ZBTB44, Q8NCP5

effect of a mutation on the interaction | Variant
disrupting interaction strength | Q443R
